In the nanobody polyreactivity screen of Harvey et al. (2022):

experiment: yeast display, Sf9 membrane polyspecificity reagent, FACS + sequencing; frameworks hold sequencing errors
Method in brief: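 Galactose induction of a Saccharomyces cerevisiae BJ5465 synthetic nanobody display library ran 36–48 hours. The cells were then stained for 1 hour at 4 °C with 10% biotinylated, detergent-solubilized Sf9 membrane reagent, pulled down on streptavidin microbeads and FACS-sorted into low and high (top ~1%) gates on expression and reagent-binding fluorescence. Labels for polyreactivity follow the gate of origin.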

Row | Sequence | polyreactivity (PSR sort gate)
1 | QVQLVESGGGLVQAGGSLRLSCAASGSIFGINAMGWYRQAPGKERELVAAITNSGANTYYADSVKGRFTISRDNAKNTVYLQMNSLKPEDTAVYYCATDFIGVIYDYWGQGTQVTVSS | low polyreactivity
2 | QVQLVESGGGLVQAGGSLRLSCAASGSIFGINAMGWYRQAPWKERELVAAITSDGSTYYADSVKGRFTISRDNAKNTVYLQMNSLNPEDTAVYYCAAYSWYYTSRYDYWGQGTQVTVSS | low polyreactivity
3 | QVQLVESGGGLVQAGGSLRLSCAASGSIFGINGMGWYRQAPGKERELVAAISDSGGSTYYADSVKGRFTISRDNAKNTVYLQMNSLKPEDTAVYYCAAETYWYFAQFYDLYSYDYWGQGTQVTVSS | low polyreactivity
4 | QVQLVESGGGLVQAGGSLRLSCAASGSIFGIYAMGWYRQAPGKERELVAAISSRAGSTNYADSVKGRFTISRDNAKNTVYLKMNSLKPEDTAVYDCNAKFSPPRRWPLRDYWGQGTQVTVSS | high polyreactivity
5 | QVQLVESGGGLVQAGGSLRLSCAASGSIFGKYAMGWYRQAPGKERELVAAISERTGRTYYADSVKGRFTISRDNAKNTVYLQMNSLKPEDTAVYYCNVGPLYSGWSTYGYDYWGQGTQVTVSS | high polyreactivity
6 | QVQLVESGGGLVQAGGSLRLSCAASGSIFGKYAMGWYRQAPGKERELVAAISGRGGGTYYADSVKGRFTISRDNAKNTVYLQMNSLKPEDTAVYYCNAYYSRLRYDYWGQGTQVTVSS | high polyreactivity
7 | QVQLVESGGGLVQAGGSLRLSCAASGSIFGLNAMGWYRQAPGKERELVARISTGSSTNYADSVKGRFTISRDNAKNTVYLQMNSLKPEDTAVYYCAADVDGGRHYGYWGQGTQVTVSS | low polyreactivity
8 | QVQLVESGGGLVQAGGSLRLSCAASGSIFGLNDMGWYRQAPGKERELVAGISSGGSTYYADSVKGRFTISRDNAKNTVYLQMNSLKPEDTAVYYCATEGRWPNASYGDYDYWGQGTQVTVSS | low polyreactivity
9 | QVQLVESGGGLVQAGGSLRLSCAASGSIFGLYAMGWYRQAPGKERELVAAISASGGSTYYADSVKGRFTISRDNAKNTVYLQMNSLKPEDTAVYYCAKKQRYYGRMDYWGQGTQVTVSS | high polyreactivity
10 | QVQLVESGGGLVQAGGSLRLSCAASGSIFGLYTMGWYRQAPGKERELVAAISSVGSTYYADSVKGRFTISRDNAKNTVYLQMNSLKPEDTAVYYCNVYSRTHYQTYTDDYWGQGTQVTVSS | high polyreactivity
11 | QVQLVESGGGLVQAGGSLRLSCAASGSIFGNAMGWYRQAPGKEREFVAAISSSGSSTYYADSVKGRFTISRDNAKNTVYLQMNSLKPEDTAVYYCAKRRRSAAPKYDYWGQGTQVTVSS | high polyreactivity
12 | QVQLVESGGGLVQAGGSLRLSCAASGSIFGPSAMGWYIQAPGKERDLVAGITRSVGSTYYADSVKGRFTISRDNAKNTVYLQMNSLKPEDTADYYCNAKWLYSRWAGYDYWGQGTQVTVSS | low polyreactivity
13 | QVQLVESGGGLVQAGGSLRLSCAASGSIFGPYAMGWYRPAPGKEREFVAAISGSGGSTYYEDSVKGRFTISRDNAKNTVYLQKNSLTPEDTAVYYCAARQAYVNRGRFRGATLDYWGQGTQVTVSS | high polyreactivity
14 | QVQLVESGGGLVQAGGSLRLSCAASGSIFGPYAMGWYRQAPGKERELVAAISLGGGSTSYADSVKGRFTISRDNAKNTVYLQMNSLKPEDTAVYYCATEDFRTDTGMYYWGQGTQVTVSS | low polyreactivity
15 | QVQLVESGGGLVQAGGSLRLSCAASGSIFGQYAMGWYRQAPGKERELVAAISTRGGSTRYADSVKGRFTISRDNAKNTVYLQMNSLKPEDTAVYYCAARPGYLYDYWGQGTQVTVSS | high polyreactivity
16 | QVQLVESGGGLVQAGGSLRLSCAASGSIFGQYAMGWYRQAPGKERELVAAITDTGDSTYYADSVMGRFTISRDNAKNTVYLQMNSLKPEDTAVYYCAADVYYAFGSMYYWGQGTQVTVSS | low polyreactivity
17 | QVQLVESGGGLVQAGGSLRLSCAASGSIFGRNAMGWYRQAPGKDRELVAAINSGGSTNYADSVKGRFTISRYNAKNTVYLQMNSLKPEDTAVYYCAARTYSSGRYYGYVAFYYWGQGTQVTVSS | high polyreactivity
18 | QVQLVESGGGLVQAGGSLRLSCAASGSIFGRYAMGWYRQAPGKERELVAAISYSGGSTYYADSVKGRFTISRDNAKNTVYLQMNSLKPEDTAFYYCAAETSYYTRWFDGHYYYWGQGTQVTVSS | high polyreactivity
19 | QVQLVESGGGLVQAGGSLRLSCAASGSIFGRYGAMGWYRQAPGKDRELVAAIRTSGVSTYYADSVKGRYTISRDNAKKTVYLQMNSLKPEDTAVYYCAKGYTSYNLGKYGYWGQGTQVTVTS | high polyreactivity
20 | QVQLVESGGGLVQAGGSLRLSCAASGSIFGRYVMGWYRQAPGKERELVATISSGGSTYYADSVKGRFTISRDNAKNTVYLQMNSLKPEDTAVYYCAASYSRFVDWIGDPGYDYWGQGTQVTVSS | low polyreactivity
21 | QVQLVESGGGLVQAGGSLRLSCAASGSIFGSNAMGWYRQAPGKEREFVAAIDWGGTITYYADSVKGRFTISRDNAKNTVYLQMNSLKPEDTAVYYCAADPTYPYGYWGQGTQVTVSS | low polyreactivity
22 | QVQLVESGGGLVQAGGSLRLSCAASGSIFGSNAMGWYRQAPGKEREFVAVITWRVGDTYYADSVKGRFTISRDNAKNTVYLQMYSLKPEDTAVYYCNVDWKVYGAPDYRIAWKYDYWGQGTQVTVSS | low polyreactivity
23 | QVQLVESGGGLVQAGGSLRLSCAASGSIFGSNAMGWYRQAPGKERELVAAISSGSTYYADSVKGRFTISRDNAKNTVYLQMNSLKPEDTAVYYCNARSLLYEFDYWGQGTQVTVSS | low polyreactivity
24 | QVQLVESGGGLVQAGGSLRLSCAASGSIFGSNAMGWYRQAPGKERELVAVITNGGRTYYADSVKGRFTISRDNAKNSVYLQMNSLNPEDTAVYYCAASRVYGWYGSYSTYGSWGQGTQVTVSS | high polyreactivity
25 | QVQLVESGGGLVQAGGSLRLSCAASGSIFGSNAMGWYRQARGKERELVASISKRGGSTYYADSVKGRFTISRDNAKNTVYVQMNSLKPEDTAVYSCAARSYYNGKISRVGYWGQGTQVTVSS | high polyreactivity
26 | QVQLVESGGGLVQAGGSLRLSCAASGSIFGSYAMGWYRQAPGKERELVAAIRSGGGTYYADSVKGRFTISRDNAKNTVYLQMNSLKPEDTAVYYCAAGDGFYFSFYIYDYWGQGTQGTVSS | low polyreactivity
27 | QVQLVESGGGLVQAGGSLRLSCAASGSIFGSYAMGWYRQAPGKERELVAAISRSGGRTYYADSVKGRFTISRDNAKYTVYLQMNSLKPEDTAVYYCAADTYIGYDYWGQGTQVTVSS | high polyreactivity
28 | QVQLVESGGGLVQAGGSLRLSCAASGSIFGTNGMGWYRQAPGKERELVAAITRRGGSTYADSVKGRFTISRDNAKNTVYLQMNSLKPEDTAVYYCAVDQGYVVRLAWIYGYWGQGTQVSVSS | low polyreactivity
29 | QVQLVESGGGLVQAGGSLRLSCAASGSIFGTNTMGWYRQAPGKEREFVAVITGSTTSTYYADSVKGRFTISRDNAKNTVYLQMNSLKPEDTAVYYCPTDYWWDLFEYDYWGQGTQVTVSS | high polyreactivity
30 | QVQLVESGGGLVQAGGSLRLSCAASGSIFGTYAMGWYRQAPGKAREFVADISAIGTSTYYADSVKGRFTISRDNAKNTVYLQMNSLKPEDTAVYYCAAESFDTVEYDYWGQGTQVTVSS | low polyreactivity
